{"source": "patent US12091776B2", "about": "“Protease activity profiling via programmable phage display of comprehensive proteome-scale peptide libraries” (THE JOHNS HOPKINS UNIVERSITY, priority 2019, dated 2024)", "molecules": {"B1": {"name": "APLPRSNRSRCPGTRQPGAASLHAASAAVPVRPRRGTAPAGKTADAVPAAAPEQAPRPAPQSRKPRNLEGDLDERRLLCHLQLAQDREAR (protein, listed as Homo sapiens)", "chain": "APLPRSNRSRCPGTRQPGAASLHAASAAVPVRPRRGTAPAGKTADAVPAAAPEQAPRPAPQSRKPRNLEGDLDERRLLCHLQLAQDREAR"}, "B2": {"name": "Gasdermin-D: well characterized human Caspase-1 substrate (protein, UniProt P57764 1-484, looked up)", "Gasdermin-D": "MGSAFERVVRRVVQELDHGGEFIPVTSLQSSTGFQPYCLVVRKPSSSWFWKPRYKCVNLSIKDILEPDAAEPDVQRGRSFHFYDAMDGQIQGSVELAAPGQAKIAGGAAVSDSSSTSMNVYSLSVDPNTWQTLLHERHLRQPEHKVLQQLRSRGDNVYVVTEVLQTQKEVEVTRTHKREGSGRFSLPGATCLQGEGQGHLSQKKTVTIPSGSTLAFRVAQLVIDSDLDVLLFPDKKQRTFQPPATGHKRSTSEGAWPQLPSGLSMMRCLHNFLTDGVPAEGAFTEDFQGLRAEVETISKELELLDRELCQLLLEGLEGVLRDQLALRALEEALEQGQSLGPVEPLDGPAGAVLECLVLSSGMLVPELAIPVVYLLGALTMLSETQHKLLAEALESQTLLGPLELVGSLLEQSAPWQERSTMSLPPGLLGNSWGEGAPAWVLLDECGLELGEDTPHVCWEPQAQGRMCALYASLALLSGLSQEPH"}, "B3": {"name": "IL-1β: mouse IL-1β (SEQ ID NO:73); library peptides containing Caspase-1 cleavage sites D26 and D117 (protein, UniProt P10749 118-269, looked up)", "Interleukin-1 beta": "VPIRQLHYRLRDEQQKSLVLSDPYELKALHLNGQNINQQVIFSMSFVQGEPSNDKIPVALGLKGKNLYLSCVMKDGTPTLQLESVDPKQYPKKKMEKRFVFNKIEVKSKVEFESAEFPNWYISTSQAEHKPVFLGNNSGQDIIDFTMESVSS"}}, "key": {"Thrombin": {"target": "T1, Thrombin (Homo sapiens, UniProt P00734)", "T1 construct": "Thrombin (a serine protease); purchased SignalChem", "assay": "SEPARATE assay: human peptidome library digest with Thrombin", "type": "biochemical", "details": "top 20 enriched peptides, human library (90-aa tiles); digest vs mock digest", "procedure": "The PCR2 amplicons are pooled and sequenced using an Illumina NextSeq instrument in standard output mode to obtain single-end 50 nucleotide reads. Dual indexed sample demultiplexing and clonal read count determination were performed using exact sequence matching. […] To calculate the normalization factor, 100 peptides were randomly selected from the mock digest conditions with a read count ranging between 10 and 40. The median read count value for these 100 peptides is calculated for each sample. The random peptide selection and median calculation is performed 20 times and the average of the 20 median values is calculated for each sample. Finally, the normalization factor is calculated by dividing the average median value for each sample by that for one of the mock digest conditions. […]"}, "endogenous Caspase-1": {"target": "T2, endogenous Caspase-1 (Homo sapiens, UniProt P29466)", "T2 construct": "endogenous in cells; host or cells: PMA-differentiated THP-1 cells", "T2 sequence (P29466 120-404)": "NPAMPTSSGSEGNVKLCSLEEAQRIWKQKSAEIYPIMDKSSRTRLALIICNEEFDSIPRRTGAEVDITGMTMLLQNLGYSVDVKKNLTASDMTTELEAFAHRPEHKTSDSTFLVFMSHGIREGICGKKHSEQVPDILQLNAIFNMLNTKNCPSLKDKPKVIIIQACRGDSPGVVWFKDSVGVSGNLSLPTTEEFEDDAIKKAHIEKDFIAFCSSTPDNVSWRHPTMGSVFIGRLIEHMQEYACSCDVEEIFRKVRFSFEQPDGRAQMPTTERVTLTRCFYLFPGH", "assay": "In vitro stimulation of the inflammasome in THP-1 cells (Western blot)", "type": "cell-based", "details": "PMA differentiated THP-1 cells, LPS and Nigericin", "experimental": "THP-1 cells were cultured in RPMI-1640 media with Glutamax (Gibco, ThermoFisher, Cat #61870127), supplemented with 10% FBS (Hyclone SH30071, GE Life Sciences), and 1× Antibiotic-Antimycotic (Gibco, ThermoFisher, Cat #15240062), referred to as complete RPMI. To differentiate THP-1 cells into macrophages, 1×10^6 THP-1 cells were added per well of a 6-well plate in complete RPMI medium containing 50 ng/ml Phorbol 12-myristate 13-acetate (PMA, diluted in RPMI medium from a 1 mg/ml PMA stock in DMSO, Millipore Sigma, Cat. No. P1585). After 48 hours when the cells become adherent, the medium with PMA was removed, cells washed in 1×PBS once, and fresh complete RPMI was added. Cells were allowed to rest for an additional 24 hours before inflammasome activation with LPS and Nigericin.\nA 6-well plate of PMA differentiated THP-1 cells were treated with 0, 1 or 0.1 μg/ml LPS (Millipore Sigma, Cat. No. LPS25) for 3.5 hours. After 3.5 hours, cells were treated with 2.5 μM Nigericin for an additional 30 minutes to activate the inflammasome. Cells were washed in 1×PBS and lysed in 1× mammalian cell extraction buffer (BioVision, Cat. No. K269) containing 2 μM Dithiothreitol (DTT). Nuclei were spun down by centrifugation (10,000 rpm, 5 minutes, 4° C.) and the cleared supernatant was used to perform Western blots. […]"}, "Caspase-1 [1]": {"target": "T3, Caspase-1 (Homo sapiens, UniProt P29466)", "T3 construct": "purchased BioVision", "T3 sequence (P29466 120-297 limits assumed)": "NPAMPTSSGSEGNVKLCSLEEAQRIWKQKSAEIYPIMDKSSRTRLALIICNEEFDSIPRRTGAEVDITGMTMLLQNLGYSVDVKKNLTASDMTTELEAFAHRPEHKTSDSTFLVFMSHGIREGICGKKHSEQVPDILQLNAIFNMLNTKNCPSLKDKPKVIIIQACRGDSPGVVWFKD", "T3 sequence (P29466 317-404 limits assumed)": "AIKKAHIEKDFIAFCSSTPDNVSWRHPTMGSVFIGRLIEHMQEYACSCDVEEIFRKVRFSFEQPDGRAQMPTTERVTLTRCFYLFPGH", "assay": "SEPARATE assay: human peptidome library digest with Caspase-1", "type": "biochemical", "details": "human library, Caspase-1", "experimental": "(§1) Streptavidin-coupled magnetic beads (Dynabeads M-280 Streptavidin, ThermoFisher Scientific) were washed (TBS, pH 7.4, 0.01% NP40) and resuspended in binding buffer (TBS, pH 7.4, 0.001% NP40) containing 2E9 plaque forming units per 10 μl of bead slurry. End-over-end mixing at room temperature was performed for one hour. Phage-coated beads were washed three times with wash buffer and transferred into two protein LoBind Eppendorf tubes blocked with TBS, pH 7.4 containing 1% BSA.\nDigestion occurred overnight at room temperature with end-over-end rotation. […] To remove any residual biotinylated phage that may have been nonspecifically released, the 150 μl supernatant of the quenched digest reaction is then incubated with a fresh 10 μl of slurry volume M280 streptavidin beads (pre-washed three times with wash buffer) in a LoBind Eppendorf tube blocked with TBS, pH 7.4 containing 1% BSA at room temperature for one hour with end-over-end rotation.\n10 μl slurry volume of protein G magnetic dynabeads were washed in buffer (TBS, pH 7.4, 0.01% NP40) and then resuspended in 50 μl TBS, pH 7.4, 0.01% NP40 containing 4 μg of M2 FLAG antibody for thirty minutes at room temperature with end-over-end rotation. The 150 μl quenched digest reaction is added to the 10 μl FLAG-coated Protein G beads and incubated for 60 minutes at room temperature with end-over-end rotation to capture phage particles released at the protease digest step. Beads are rinsed once with 100 μl wash buffer and stored at −80° C. until PCR amplification.\nLibrary PCR preparation, high-throughput DNA sequencing, and peptide read count data generation was performed as described previously.^44 Briefly, library peptide inserts are amplified by resuspending 10 μl of FLAG-coated Protein G beads in PCR1 master mix containing the T7-Pep2_PCR1_F forward primer ([…]) (SEQ ID NO:3) and a T7-SEPARATE vector specific reverse primer ([…]) (SEQ ID NO:4), which includes an adapter sequence for sample-specific barcoding and Illumina P7 adapter incorporation during a subsequent PCR2 reaction. The PCR2 amplicons are pooled and sequenced using an Illumina NextSeq instrument in standard output mode to obtain single-end 50 nucleotide reads. Dual indexed sample demultiplexing and clonal read count determination were performed using exact sequence matching. […] To calculate the normalization factor, 100 peptides were randomly selected from the mock digest conditions with a read count ranging between 10 and 40. The median read count value for these 100 peptides is calculated for each sample. The random peptide selection and median calculation is performed 20 times and the average of the 20 median values is calculated for each sample. Finally, the normalization factor is calculated by dividing the average median value for each sample by that for one of the mock digest conditions. Read counts are then converted to normalized read counts by dividing each sample's read count values by the normalization factor. Fold enrichments are calculated for each peptide by dividing their normalized read counts in the digest condition by the normalized read counts in the mock digest condition. The fold enrichments can be visualized in an MA plot by transforming the normalized read count data into a log ratio (M, on the y-axis) and a mean average (A, on the x-axis) between the digest and mock digest conditions."}, "Caspase-1 [2]": {"target": "T3, Caspase-1", "assay": "SEPARATE assay: 56-amino acid mouse peptidome library digested with Caspase-1", "type": "biochemical", "details": "mouse library peptides of IL-1β and Gsdmd, FIG. 8", "experimental": "as §1\nDigestion occurred overnight at room temperature with end-over-end rotation. […]\nLibrary PCR preparation, high-throughput DNA sequencing, and peptide read count data generation was performed as described previously.^44 Briefly, library peptide inserts are amplified by resuspending 10 μl of FLAG-coated Protein G beads in PCR1 master mix containing the T7-Pep2_PCR1_F forward primer ([…]) (SEQ ID NO:3) and a T7-SEPARATE vector specific reverse primer ([…]) (SEQ ID NO:4), which includes an adapter sequence for sample-specific barcoding and Illumina P7 adapter incorporation during a subsequent PCR2 reaction. The PCR2 amplicons are pooled and sequenced using an Illumina NextSeq instrument in standard output mode to obtain single-end 50 nucleotide reads. Dual indexed sample demultiplexing and clonal read count determination were performed using exact sequence matching. […]"}}, "note": "Where “and” joins values, the source holds several entries; their conditions need not be identical. Equal values may be shown once.", "data": [{"molecule": "B1", "values": [{"measurement": "Thrombi Fold Change", "setting": "Thrombin", "value": 10.98, "unit": "fold"}]}, {"molecule": "B2", "values": [{"measurement": "cleavage by endogenous Caspase-1 upon inflammasome activation (Western blot)", "setting": "endogenous Caspase-1", "value": "cleaved"}, {"measurement": "scoring in the SEPARATE assay", "setting": "Caspase-1 [1]", "value": "did not score"}]}, {"molecule": "B3", "values": [{"measurement": "Fold enrichments", "setting": "Caspase-1 [2]", "value": "7.5 fold and 13 fold and 9 fold"}]}]}
